# Measurements taken from the DeepSol protein solubility set.
# Assay: soluble on expression in E. coli; label from the status in PepcDB or PDB records
row,Sequence,soluble on expression in E. coli
1,MGSDKIHHHHHHMPMTNLAALSIPDLQQYAQGAVAAPFGLVLDDGSVLQSLEVVRRVPGKRLVCRGLLNGQAIYAKLFIGGQAGKYAARDKRGARWLAQARLATPTLLLESGVASQGCEALLYGAIPARNAEQVWQDLDEEGRHALALRLVEEVARHHRAGLLQTDLYLKNFLVDAQAVYTLDGDGIRQLRVFGRQRQQWDNLARLISKFDVDAVAAWLPSLLRQYVAVIGGGASDIDIMQQLIARHWRRDMRQYASKVQRSCTDVAVEEKPWHYLAINRAQDSPGVRQALATPDGLLDATSAVRLKSGNTCTVAAVEIDQRKMVIKRYNIKNFWHGLGRAWRPSRAVVSWSNAFRLQLKGIATPAAVAVLERRWLGLRREAYLLTEFMIARDAAEFYADLTIDREVKERVAQRIARLFFQLFCLQLEHGDFKATNILIRDQYPLLIDLDSMRQHACKKRFERRHARDLQRFFKNWQGDAATSQLLAAAFRAVYADGRVLDQAGIVFNQSEKDE,not soluble
2,MKKAYLVWGMAALLSLGVAQQAGGLTLEGVEALRQEARKAYPVGFVDLAPWKRALEAAEALAKQNPNDLRALRLLAEIYTETQWAIRAWEAWMNYREKGGTWDEAARQAAAKVARTLAFYANQRGDRAEAERWAAQAQAVEAGQ,soluble
3,MTSLILPTDDGGTREYRLQAATSWVKPTAPLTARRAYAAAHVIPEVAADNTPGAPAQLDWDATLAYRHELWSYGLGVADAMDTAQRGMGLDWAATQQLIKRTGAEAASVVAAGNAAITGKSVRDLVSCGAGTDQLDITALPEGAAGIQAVIDAYREQIAVVSEAGPKVILMASRALAKVANGADDYLHVYSTLLQEVDQPVILHWLGTMFDPALAGYWGSDDVSVATDTFLSLIREHSDKVDGVKVSLLDASHEVALRAALPEGVRLYTGDDFNYPELIDGDQTHHSDALLGIFAAIYPAASVALQKYDAGQGTEGRAILDSTRELGKHIFSAPTFYYKTGIAFMSWLNGKQPGFQMVGGLHSGRSVLHLAKTFELADQAGLLKDPSLAAFRMSDFLRINGVG,not soluble
4,GPGSMSVLVKGWGRGTCKINHIRDDDISSSESEGDDANVAVPLEELNVGTQHMITEEMRFRLRRKEKLSVQDDELGRLREAMRRQVFASGLLQPGQSAGVAPRRAEIIFSCAVEIQSSGLMEEAPTASPRVGDTSAWLKQLRKFILDRVPFQRSVRVMVPRTWLARAQETDVV,not soluble
5,MSLGNASMTKTDIATRVHNHTWKLDPIVRSLIDTDFYKLLMLQMIWKLYPEVDATFSLINRTKTVRLAEEIDEMELREQLDHARTLRLSKKENIWLAGNTFYGRSQIFEPEFLSWLSSYQLPEYELFKRDGQYELNFHGRWMDTTLWEIPALSIINELRSRSAMRSLGYFTLDVLYARAKAKMWEKVERLRELPGLRISDFGTRRRHSFLWQRWCVEALKEGIGPAFTGTSNVLLAMDSDLEAVGTNAHELPMVVAALAQTNEELAAAPYQVLKDWNRLYGGNLLIVLPDAFGTAAFLRNAPEWVADWTGFRPDSAPPIEGGEKIIEWWRKMGRDPRTKMLIFSDGLDVDAIVDTYRHFEGRVRMSFGWGTNLTNDFAGCAPKTIASLKPISIVCKVSDANGRPAVKLSDNPQKATGDPAEVERYLKFFGEEDHKEQKVLVEGHHHHHH,soluble
6,MSLEQLNERTVLEYVEKTDLRKSILGDGKLSAQIISEGNVNLIFRICNIENGNSVILKQALPYAWRYPDFKMPVDRQRIEYETLSIESQYAPDYVPKIYFYDNKSHVLVIEDLKELKVMREALIDGEIFPKVAEHIGIFMAKTLFYTSDLYLSSGKKKEMVINFSNPVLCKVQEDLVFTQPYIDHPNNKWSKPLDEIVKKIHQDDKIRGEIFYFKELYMTKSQALIHNDLHTGSIMLNEKTTKVIDPEFAFYGPMAHDIGTYFANLAIAYAAQEAHRVEPGTRNVYREWIAESFEETWNVFQQRFLNAWEKDSNGEWPSESYRENYMLRLLKESAGFGAAEIFRRTIGMAHVHDFWTIKDENIRAKSESIALYIAINWINMWKDVEKIQDLSQVMKNSKPLEGHHHHHH,soluble
7,MSNDRPLIFVDLDDTLFQTARKTPADIEKHVATLDISGNANGYMTNVQKSFAHWLLAHADVVPVTARSVEAYSRVKLPFTAGAICSHGGVMLDVMGRLDPDWNEQMKQTLASYQSRLHELSAATLAIGQEMGFSLRGWVVEEAQLFHYVVTKHNESDDSILTKVLAEMQARGLLDGMHIHGNGNNLAFLPEGLAKRYAVQEWLRRDLAINGERPVLGFGDSITDLGFMDECHWWATPARSQLAKMFVGAAHE,not soluble
8,TSDDHVPVDITDLLDRAAHDAARIYPDLDVSLVPSPTCIIVGLPAGLRLAVDNAIANAVKHGGATLVQLSAVSSRAGVEIAIDDNGSGVPEGERQVVFERFSRGSTASHSGSGLGLALVAQQAQLHGGTASLENSPLGGARLVLRLPGPS,soluble
9,MSLRVLIVENEIYLAQSIAAKLSDFGFECEIVSLVNEALREQEYDVVLLSTNVSGQNYYPIIEKHKDSIIILMISYVSDDTVSKPLKAGAKDYILKPFMIDELIRKIEHYRTFQKLKKEVQFYRRYLDFALSDFPSSLNQKLTTPFVIKSSTQKSADAYAIAYAKHKDIPLDFLSIKEGFHWRDKLKRALPCREIKYIVGLEELKKSERKELLEIVAKSCVILSFVSSEEGHHHHHH,not soluble
10,MAKVTGTKVITNQVRLSFVHVLEPHAMEEGQEKKYSCMLIIPKDDKETLKAMKEAIKTAYEGAKGDKLKGVKFERLKTTLRDGDEEMDTEERPEFENAMFINVSSKTKPQVVKREDGVLVKTDDPDEVYSGVYAIASINFYAYSTAGNKGVTAGLNNILTLCKGDFLGGRANAESDFGDLEWEDEEDDMFS,not soluble
11,FLSDGKEIIAEKDEAIRETVKLLEEGHILAIKGIGGTHLACKVGEDDVVLELRKRLGRPTQPFAVMSKIEYTELFAEFDEDEKNALLSLRRPIVVLKKSQDYDKYFSKYVSNLDTIGVMFPYSGLHYLLFDKEIAYVMTSANLPGLPMVKDNDEILKKLNGIADYFLLHNRRIVNRCDDSVVKKVADRLVFLRRSRGFAPEPVKV,not soluble
12,MSEAIIAKKAEQVELIAEKMKAAASIVIVDSRGLTVDQDTVLRRSLRESGVEFKVIKNSILTRAAEKAGLDELKDVFVGPSAVAFSNEDVIAPAKVINDFTKTADALEIKGGAIEGAVSSKEEIQALATLPNREGMLSMLLSVLQAPVRNVAYAVKAVAENKEGAA,not soluble
13,MSLTIVAPMDEILERAHVVALPMRVKFRGIMVREAVLFDGPKGWGEFSPFVEYGVQEAAQWLRCGLEMAFQGPPPMIRDAVEVNATIPAVSPDQVPEILARYPGCTTVKVKVAEGDDAARVAMVREVLPDARIRVDANRGWTVDQAVAASKHLGELEYMEQPCASVAELAELRRRISVPIAADESIRRVSDPYEVARLHAADVAVVKAAPLGGPRNIVDIAKFYQQRGLSLTVASALDTGVGMNAGIAVAAAIDSNPAGLATQRLFVEDVTEPRTIVDGKMSVEMLAPDPARLAEFEVTGPRRDWWLDRVRGALECLHDFIPEGHHHHHH,soluble
14,MTEILQTLKEYIPISLEEMSGIKLMNRTDTKYVTSYQILKEILLAAGHDYRVQEVNGEYNIAYHTIYLDTADRDMYLTHQNGRVVREKIRIRTYVDSDLTFLEVKNKNNKGRTDKKRIRIGSIDTIKEDGGEAFLRQHAWYEQSQLLPLLENSFRRITLVNKHKTERLTIDTGVTFCCLQSGKISSLDNIVIIELKRDGHNSSPIKEILRKLHIQSSGFSKYCIGSALTVSHLKCNRLKPKLRMLNKMGVYLEHHHHHH,soluble
15,MKFFSNPKQEAQTHFHLHKDKETMSVSAIFGTGIVTVAASPVLRQFQVPKLGNGGGLGMVIECSSRPQKKSTAHHRKTRPKKTQPWDIKRKPTVYAPLPPLPAEWSPFTLASDDGGAATAAGDLVSGAA,not soluble
16,MSLNQQYNAFSVLVVDDELGMQAILKKALGKLFSHVDTAGSIEEAEQLRNSRHYDLILLDINLPGRSGIEWEEAFEDDEKRADVIFMTGYADLEIAIRALQLGASDFILKPFNLEQMLKAVSRCMDRRLNERMQYAMKRDYQRHNTSEIIGGSEKTRQLKQLITQFAPSRASVLVEGESGTGKELVARGIHQASGRTGPFVPINCGAIAPELLESELFGHTSGAFTGAKKSREGLFRVANGGTLFLDEIGEMPLSMQASLLRVLEQRTIRPVGSEREISIDVRIVAATNRNLQEEVNQGNFRSDLYYRLNVLKIEVCPLRERKTDLFELVPFFSNMLTRELGMPAPKWAHEDMEAMSEYDWPGNIRELKNLIERCILLGKPPAHYWRELNGGHSLPNVSEGHHHHHH,soluble
17,MGSDKIHHHHHHMQSTASHTKAPGKSHPVVTEDQYFSVSPLMLLADNAALFSVYLRQGNNFVLYTHAGEMFTHRHKQRLAENGVTEVWLKESQRHAYTAHVEQHLGNVLADDSLPAEARAGALYGIASDALQDVFAQHGAGALPADTARRARQLVEHIISFLKVPNGITALGRFIAHDYHSWTHSLNTTFYTLGILQSYGLPDESMAHIGLGAMLHDIGKAEIPSSILLKPGPLTASERQCINTHPLMGVARLAQTELPQTTLNCILFHHEKLDGSGYPSGIGGTAIPLAVRAVTVADIYDALASERPYAAARPPFAVLQLMRGEMADELDMDVFKNFVLMLSNAGLTKT,not soluble
18,MRVFKTILLVVLMTLSQAMVAQTSPIPMLERAANQIISILKENKARLKSNPEIIYKAVEENLLPNVDVAGMSRSVLGRQAWSKATEAERVEFSKAFTRLVIRTYSSPLAQYSDETVQFLPLRGSLNSRFIRVNSVIVRSAGQNIPLSYSLVSKNGKWKIYDISVEGVSLLQSFRSQFAQALQHSSISQVIKEMQQKQIKKASLEHHHHHH,not soluble
19,AIASETISRVRQLTEKGAKMEGWDDCWKAGLTPWDRGSSLPVLCELCKEDALPKGYALVPGCGRGYDVLTLASESRVAIGLDCSEEAKKQAEQVRKFSVVDNCQLKEIEAEGF,soluble
20,MGSDKIHHHHHHVKEVKPKEDRVVLTKDQEKSLQIFCEWLEAPYSFKPFVMKGFAGSGKTYLSMKLLKKVDQLGLCWTVVAPTHKAVGVLREGLKNESIQPTWFPSTIHRLLRLKLKRQADIEICEKTDQTESSLENLGLVLIDEASMIDSKLLEITLECARCNSTRLVFVGDPAQLPPVGESTSSVFLMKRAVNTELREVVRHQGPVLKLAKVIRDGQIPCMQPPLVKVINSKKGNVGILDRTSWLERAKLALRLSSLEDDHDRARILCYTNRIVDNLVPHARRAIHGEMADQYQVLPGEVLISRKAVMVNASLNVDELGEEPDILISSNREMVVEDVIPNSFDLASLGIHQDFENPLPVIETQVAKVNCDQKEFSLRLMPQIGSKARKDLDLSLNELSNLARERGRKNSASTWKLFFFIRDSFASLGPASVLTIHRSQGSTFGEVFITSDAFWPKDLEFRRRLVYVAVSRASKGVWIVGDNKSKMNQALLEKLLMD,not soluble
21,GMKRVLLLFDVDGTLTPPRLCQTDEMRALIKRARGAGFCVGTVGGSDFAKQVEQLGRDVLTQFDYVFAENGLLAYRNGLEIHRQSLLNALGNDRIVKFVKKTLRLIADLDIPVQRGTFVEYRNGMINVSPIGRNCSQAERDEFEVYDNEHRVRASLIAELENSFPDFGLKYSIGGQISFDVFPVGWDKTYCLQFVEDDFEEIHFFGDKTQEGGNDYEIYTDKRTIGHKVTSYKDTIAEVEKIIAMK,soluble
